Results on 23 molecules are retold here after publication PMC8324831, “A synthetic nanobody targeting RBD protects hamsters from SARS-CoV-2 infection” (Nature Communications, 2021).

This test addresses SARS-CoV-2 S-RBD with Avi-tag and deca-His tag (residues 330-531) (SARS-CoV-2, UniProt P0DTC2, biotin on the Avi tag (BirA) where immobilised on streptavidin sensors or used in ELISA and FSEC).

B1: MR8 (VHH)
VHH: QVQLVESGGGLVQAGGSLRLSCAASGFPVEWAHMHWYRQAPGKEREWVAAIVSAGHYTVYADSVKGRFTISRDNAKNTVYLQMNSLKPEDTAVYYCNVKDWGSSNQYYDYWGQGTQVTVS
Consider B1, for which the binding result is given as “binds”.

B2: MR12 (VHH)
VHH: QVQLVESGGGLVQAGGSLRLSCAASGFPVEWSHMHWYRQAPGKEREWVAAIVSTGEYTKYADSVKGRFTISRDNAKNTVYLQMNSLKPEDTAVYYCNVKDWYGQAKSYDYWGQGTQVTVS
Regarding B2, the binding result is reported as “binds”.

B3: MR14 (VHH)
VHH: QVQLVESGGGLVQAGGSLRLSCAASGFPVMYTHMHWYRQAPGKEREWVAAIVSLGEYTTYADSVKGRFTISRDNAKNTVYLQMNSLKPEDTAVYYCNVKDWGAANKYYDYWGQGTQVTVS
As to B3, the binding result is recorded as “binds”.

B4: MR15 (VHH)
VHH: QVQLVESGGGLVQAGGSLRLSCAASGFPVDTWMEWYRQAPGKEREWVAAITSYGYKTYYADSVKGRFTISRDNAKNTVYLQMNSLKPEDTAVYYCNVKDFGYASTYYDYWGQGTQVTVS
Turning to B4, the binding result is listed as “binds”.

B5: MR11 (VHH)
VHH: QVQLVESGGGLVQAGGSLRLSCAASGFPVEWTSMVWYRQAPGKEREWVAAIYSAGHHTKYADSVKGRFTISRDNAKNTVYLQMNSLKPEDTAVYYCNVKDYGHDRSNYDYWGQGTQVTVS
As for B5, the binding result is “binds”.

B6: LR11 (VHH)
VHH: QVQLVESGGGSVQAGGSLRLSCAASGSISSITYLGWFRQAPGKEREGVAALVTHSGSTYYADSVKGRFTVSLDNAKNTVYLQMNSLKPEDTALYYCAAAYWGWDWPLNSQDYWYWGQGTQVTVS
B6: the binding result is “binds”.

B7: LR13 (VHH)
VHH: QVQLVESGGGSVQAGGSLRLSCAASGSISSITYLGWFRQAPGKEREGVAALITHAGRTYYADSVKGRFTVSLDNAKNTVYLQMNSLKPEDTALYYCAAADWGWYWPLVIDHYEYWGQGTQVTVS
Regarding B7, the binding result is recorded as “binds”.

B8: LR8 (VHH)
VHH: QVQLVESGGGSVQAGGSLRLSCAASGTIAYIKYLGWFRQAPGKEREGVAALMTRWGETYYADSVKGRFTVSLDNAKNTVYLQMNSLKPEDTALYYCAAANYGANFPLQANTYFYWGQGTQVTVS
For the molecule B8, the binding result was “binds”.

B9: LR12 (VHH)
VHH: QVQLVESGGGSVQAGGSLRLSCAASGSIASIKYLGWFRQAPGKEREGVAALMTRWGETYYADSVKGRFTVSLDNAKNTVYLQMNSLKPEDTALYYCAAAECGANSPLHAKDYSYWGQGTQVTVS
As for B9, the binding result is recorded as “binds”.

B10: MR18 (VHH)
VHH: QVQLVESGGGLVQAGGSLRLSCAASGFPVWEHHMAWYRQAPGKEREWVAAITSKGRYTTYADSVKGRFTISRDNAKNTVYLQMNSLKPEDTAVYYCHVKDAGYFDAQYDYWGQGTQVTVS
On to B10, for which the binding result is “binds”.

B11: LR10 (VHH)
VHH: QVQLVESGGGSVQAGGSLRLSCAASGTISSITYLGWFRQAPGKEREGVAALTTNNGHTYYADSVKGRFTVSLDNAKNTVYLQMNSLKPEDTALYYCAAADWGYDWPLDRYHYWYWGQGTQVTVS
Turning to B11, the binding result is listed as “binds”.

B12: LR14 (VHH)
VHH: QVQLVESGGGSVQAGGSLRLSCAASGSIPGITYLGWFRQAPGKEREGVAALVTNSGHTYYADSVKGRFTVSLDNAKNTVYLQMNSLKPEDTALYYCAAADWGYQWPLDKAEYWYWGQGTQVTVS
Turning to B12, the binding result is listed as “binds”.

B13: MR13 (VHH)
VHH: QVQLVESGGGLVQAGGSLRLSCAASGFPVKNMNMHWYRQAPGKEREWVAAIYSYGVETHYADSVKGRFTISRDNAKNTVYLQMNSLKPEDTAVYYCNVKDWGSYMNWYDYWGQGTQVTVS
For the molecule B13, the binding result is “binds”.

B14: MR19 (VHH)
VHH: QVQLVESGGGLVQAGGSLRLSCAASGFPVRNTEHMYWYRQAPGKEREWVAAIFSMGRFTKYADSVKGRFTISRDNAKNTVYLQMNSLKPEDTAVYYCNVKDTGSFSEGYDYWGQGTQVTVS
On to B14, for which the binding result is recorded as “binds”.

B15: LR3 (VHH)
VHH: QVQLVESGGGSVQAGGSLRLSCAASGTINNITYLGWFRQAPGKEREGVAALITTSGYTYYADSVKGRFTVSLDNAKNTVYLQMNSLKPEDTALYYCAAASWGYEWPLVYDDYWYWGQGTQVTVS
As for B15, the binding result is “binds”.

B16: LR9 (VHH)
VHH: QVQLVESGGGSVQAGGSLRLSCAASGSISSITYLGWFRQAPGKEREGVAALITARGRTYYADSVKGRFTVSLDNAKNTVYLQMNSLKPEDTALYYCAAANWGYNWPLAYSDYWYWGQGTQVTVS
B16: the binding result is on record as “binds”.

B17: LR6 (VHH)
VHH: QVQLVESGGGSVQAGGSLRLSCAASGSISSITYLGWFRQAPGKEREGVAALVTTSGNTYYADSVKGRFTVSLDNAKNTVYLQMNSLKPEDTALYYCAAATWGYSWPLEHDEYWYWGQGTQVTVS
As for B17, the binding result is given as “binds”.

B18: MR9 (VHH)
VHH: QVQLVESGGGLVQAGGSLRLSCAASGFPVASTWMEWYRQAPGKEREWVAAITSYGYHTYYADSVKGRFTISRDNAKNTVYLQMNSLKPEDTAVYYCNVKDEGYFSTNYDYWGQGTQVTVS
As for B18, the binding result was “binds”.

B19: MR10 (VHH)
VHH: QVQLVESGGGLVQAGGSLRLSCAASGFPVANTWMEWYRQAPGKEREWVAAITSYGYRTYYADSVKGRFTISRDNAKNTVYLQMNSLKPEDTAVYYCNVKDEGATTKVYDYWGQGTQVTVS
Take B19: the binding result is recorded as “binds”.

B20: MR16 (VHH)
VHH: QVQLVESGGGLVQAGGSLRLSCAASGFPVERTWMEWYRQAPGKEREWVAAITSYGYRTYYADSVKGRFTISRDNAKNTVYLQMNSLKPEDTAVYYCNVKDEGSASSAYDYWGQGTQVTVS
For the molecule B20, the binding result was “binds”.

B21: LR4 (VHH)
VHH: QVQLVESGGGSVQAGGSLRLSCAASGFIHSIYYLGWFRQAPGKEREGVAALNTQHGTTYYADSVKGRFTVSLDNAKNTVYLQMNSLKPEDTALYYCAAARWGRNYPLNYWQYSYWGQGTQVTVS
Regarding B21, the binding result is “binds”.

B22: LR2 (VHH)
VHH: QVQLVESGGGSVQAGGSLRLSCAASGDINAIGYLGWFRQAPGKEREGVAALDTDEGQTYYADSVKGRFTVSLDNAKNTVYLQMNSLKPEDTALYYCAAAMNGYNEPLYSYDYEYWGQGTQVTVS
On to B22, for which the binding result is “binds”.

B23: LR7 (VHH)
VHH: QVQLVESGGGSVQAGGSLRLSCAASGSISSITYLGWFRQAPGKEREGVAALITNWGHTYYADSVKGRFTVSLDNAKNTVYLQMNSLKPEDTALYYCAAAFHGEQYPLYTNKYHYWGQGTQVTVS
Regarding B23, the binding result is given as “binds”.
